Source: publication PMC2847151 (2009)

Columns and labels:
Lck SH3 = target: T1, Lck SH3 (Homo sapiens, UniProt P06239); assay: fluorescence titration
T1 chain: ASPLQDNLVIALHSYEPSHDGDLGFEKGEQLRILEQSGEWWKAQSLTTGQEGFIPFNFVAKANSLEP

Abl SH3 = Abl SH3 (Homo sapiens, UniProt P00519); assay: fluorescence titration
Abl SH3, sequence (P00519 58-124): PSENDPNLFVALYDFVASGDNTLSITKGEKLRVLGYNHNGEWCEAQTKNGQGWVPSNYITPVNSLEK

- Kd (Lck SH3): 33.5 µM
- Kd (Abl SH3): 2370 nM
Binder: Ac-QLPPGPPGAPKPPPAS-NH2 [MED25]
